Legend:
[1] = biological target: HLA-A2 (human); experiment: assembly assay, TAP-deficient cell lysate, W6/32 IP, IEF gel
[2] = biological target: HLA-A2 (human); experiment: assembly assay (HLA stabilisation), T2 cell lysate, IP, IEF gel
[3] = biological target: HLA-A1 (human); experiment: assembly assay, TAP-deficient cell lysate, W6/32 IP, IEF gel
[4] = biological target: HLA-A3 (human); experiment: as above

In the case of C1, HIV-1 pol476-484 (peptide), the C50 [1] is reported as 0.2 µM and the C50 [2] is reported as 0.7 µM.
Work on C1, Influenza A, PB1 591-599 (peptide) yielded a C50 [3] of 0.8 µM.
With “Influenza A, nucleoprotein 265-273 (peptide)” the C50 [4] was 0.1 µM.
